In the assay the target is Aβ(1-40) peptide, monomeric (UniProt P05067 672-711). Kind of assay: SPR. (SPR reads the build-up and loss of mass on a sensor chip optically.)

B1: anticalin H1GA (Aβ-anticalin) (designed binder)
chain: QDSTSDLIPAPPLSKVPLQQNFQDNQFHGKWYVVGAAGNVLLREDKDPLKMYATIYELKEDKSYNVTSVGFDDKKCLYKIRTFVPGSQPGEFTLGRIKSEPGGTSWLVRVVSTNYNQHAMVFFKEVAQNRETFNITLYGRTKELTSELKENFIRFSKSLGLPENHIVFPVPIDQCIDG
In the case of B1, the Kd worked out at 0.54 nM. This lies in the sub-nanomolar range.

One may read the Kd as the constant that tells how readily two partners part at equilibrium.
